What was measured:
[1] = biological target: T1, gp350 protein on gp350 expressing CHO cells (Epstein-Barr virus, UniProt P03200); test: Flow cytometry of CHO cells stably expressing EBV gp350; format: binding; conditions: concluded from flow cytometry and immunoblot
T1 construct: stably co-transfected with full-length pCAGGS-gp350/220 and pCI-puro vector; expressed in transfected cells; host or cells: CHO cells
Description: To assess the ability of purified anti-gp350 mAb to detect surface expression of EBV gp350 protein by flow cytometry, CHO cells that stably express EBV gp350 were harvested and stained with purified anti-gp350 (10 μg/ml), followed by AF488 goat anti-mouse IgG secondary antibody. Flow cytometric analysis was performed on a C-6 FC (BD Biosciences) and data was analyzed using FlowJo Cytometry Analysis software (FlowJo, LLC) as described (47). All the experiments were independently repeated three times.
These novel antibodies were analyzed by flow cytometric analysis for surface expression of gp350 protein on 10^6 CHO cells transfected with 1 μg of pCAGGS-gp350. gp350 expressing cells were resuspended in PBS, stained with anti-gp350 mAb, which detects the gp350 ED, followed by secondary Ab goat anti-mouse conjugated to AF488. Additionally, western blot analysis was conducted on untransfected and pCAGGS-gp350 transfected CHO lysate. Anti-gp350 mAb 72A1 was used as a positive control (1:100) and anti-gp350 hybridoma clone supernatants were used at 1:50, and anti-mouse secondary antibody was used at 1:2000.
Flow cytometric analysis of gp350 and gH/gL specificity was performed. CHO wild type cells and gp350 or gH/gL-expressing CHO cells were stained with primary antibodies, followed by secondary goat anti-mouse or anti-human conjugated to AF488. Unstained cells and cells stained with secondary goat anti-mouse or anti-human conjugated to AF488 alone, were used as negative controls.

[2] = biological target: T2, purified EBV gp350/220 (recombinant EBV gp350 ectodomain) (Epstein-Barr virus, UniProt P03200); test: Indirect ELISA on recombinant EBV gp350 ectodomain; format: binding; conditions: purified antibodies 10 μg/ml
T2 construct: purified EBV gp350 ectodomain protein (AA 4-863); purchased Immune Technology Corporation
Description: Briefly, immunoplates (Costar 3590; Corning Incorporated) were coated with 50 μl of 0.5 μg/ml recombinant EBV gp350 ectodomain (Immune Technology Corporation) diluted in 1× phosphate buffered saline (PBS, pH 7.4) and incubated overnight at 4° C. After washing three times with 1×PBS containing 0.05% (v/v) Tween 20 (washing buffer), plates were blocked with 100 μl washing buffer containing 2% (w/v) bovine serum albumin (BSA) (blocking buffer) then incubated for 1 h at room temperature and washed as above. 100 μl of hybridoma supernatant or 50 μl of 10 μg/ml purified mAbs was added to each well (in triplicate) and incubated for 2 h at room temperature. […] The plates were washed as described above, followed by incubation with 50 μl of goat anti-mouse IgG HRP-conjugated secondary antibody (1:2,000 diluted in 1×PBS) at room temperature for 1 h. The plates were washed again and 100 μl of chromogenic substrate 2,2′-azino-bis (3-ethylbenzothiazoline-6-sulphonic acid) (ABTS, Life Science Technologies) was added. The reaction was stopped using 100 μl of ABTS peroxidase stop solution containing 5% sodium dodecyl sulfate (SDS) in water. The absorbance was read at an optical density of 405 nm using an ELISA reader (Molecular Devices). All experiments were performed in triplicate and confirmed in three independent experiments.
ELISA binding of anti-gp350 and anti-gH/gL to soluble gp350 and gH/gL proteins was performed. Soluble EBV gp350 and gH/gL proteins were used as the target antigen at 0.5 μg/ml. 1× phosphate buffered saline (PBS) was used as negative (not shown) control. Bound antibodies were detected using HRP-conjugated anti-mouse or anti-human IgG (1:2,000).

[3] = system: EBV-eGFP infection of Raji cells; test: EBV neutralization assay in Raji cells; format: cell-based, Epstein-Barr virus; conditions: for neutralization of EBV in Raji cells (in words): spin-column purified mAbs, 12.5, 25, 50 and 100 μg/ml; for blocking of EBV infection of Raji cells (in words): protein G and size-exclusion chromatography-purified mAbs, 12.5-100 μg/ml
Description: EBV neutralization assay was performed in Raji cells as previously described (47). Briefly, purified individual anti-gp350 mAbs were incubated with purified AGS-EBV-eGFP (titer calculated to infect at least 8% of HEK293 cells seeded in 100 μl of serum-free DMEM) for 2 hours at 37° C. To represent EBV infection of B cells, the pre-incubated anti-gp350 mAbs/AGS-EBV-eGFP were used to infect 5×10^5 Raji cells seeded in a 96-well plate for 2 hours at 37° C. Neutralizing 72A1 and non-neutralizing 2L10 anti-gp350 mAbs served as positive and negative controls, respectively. Infected cells were washed three times with PBS to remove any unbound viruses and antibodies. Washed, infected cells were incubated in 96-well plates at 37° C. for 48 hours post-infection and the number of eGFP+ (infected) cells was determined using flow cytometry. All dilutions were performed in quintuplicate and the assays were repeated three times. Antibody EBV neutralization activity was calculated as: % neutralization=(EBValone−EBVmAb)/(EBValone)×100.
However, this antibody was recently reported to be a mixture of both functional and non-functional antibodies (50). […] The percentage of eGFP+ cells (percent infection) was determined using flow cytometry as described (47). The nAbs 72A1 and E1D1 were used as positive controls, whereas the anti-gp350 non-neutralizing mAb 2L10 and KSHV gH/gL mAb 54A1 were used as negative controls. Because HB4, HB13, HB15, HB16, HB19, HB21, and HB23 were confirmed to be polyclonal based on isotyping and/or sequence data, they were eliminated from further consideration in the neutralization assay. HB18 was not used in neutralization experiments because it was identical to HB8.
The purified eGFP-tagged-EBV was titered in Raji cells to determine percent EBV infection using a range of volumes (50-250 μl) (FIG. 5A). Then initial neutralization of EBV was conducted in Raji cells using purified mAbs at various concentrations (12.5, 25, 50, and 100 μg/ml).
EBV-eGFP+ cells were enumerated using flow cytometry.

[4] = biological target: T3, EBV gp350 stably expressed on CHO cells (Epstein-Barr virus, UniProt P03200); test: Epitope mapping by competitive cell binding assay with biotinylated mAbs; conditions: for % inhibition of biotinylated nAbs (biotinylated m72A1): biotinylated m72A1 1 μg/ml
T3 construct: stably co-transfected with full-length pCAGGS-gp350/220 and pCI-puro vector; expressed in transfected cells; host or cells: CHO cells
Description: To evaluate conformation epitope mapping of the selected mAbs, competitive binding assays were conducted using biotinylated mAbs. A one-step antibody biotinylation kit (MACS Miltenyi Biotec) was used to biotinylate the mAbs. Approximately 1×10^5 CHO cells that stably expressed EBV gp350 were incubated for 2 hours with serially diluted ([…]) unlabeled competitor mAbs and non-specific anti-KSHV gH/gL 54A1 mAb. After being washed with PBS, the cells were incubated for 2 hours in the presence of 1 μg/ml biotinylated mAbs. To determine maximum binding, cells in which the biotinylated mAb was added in the absence of unlabeled mAbs were included in the assay. Cells were washed with PBS, followed by incubation for 1 hour with anti-biotin AF488 at a dilution of 1:500. After the final wash in PBS, cells were resuspended in 1% paraformaldehyde and analyzed by flow cytometry as described above. Percentage of inhibition was calculated as: 100−[(% fluorescent cells with competitor mAb/% fluorescent cells without competitor mAb)×100]. The complete prevention of binding of a biotinylated mAb by its unlabeled counterpart was used as a validation of the assay, as previously described (84).
At least seven unique CD21 binding epitopes on EBV gp350 have been predicted (Table 3).

T3 sequence (P03200 whole entry): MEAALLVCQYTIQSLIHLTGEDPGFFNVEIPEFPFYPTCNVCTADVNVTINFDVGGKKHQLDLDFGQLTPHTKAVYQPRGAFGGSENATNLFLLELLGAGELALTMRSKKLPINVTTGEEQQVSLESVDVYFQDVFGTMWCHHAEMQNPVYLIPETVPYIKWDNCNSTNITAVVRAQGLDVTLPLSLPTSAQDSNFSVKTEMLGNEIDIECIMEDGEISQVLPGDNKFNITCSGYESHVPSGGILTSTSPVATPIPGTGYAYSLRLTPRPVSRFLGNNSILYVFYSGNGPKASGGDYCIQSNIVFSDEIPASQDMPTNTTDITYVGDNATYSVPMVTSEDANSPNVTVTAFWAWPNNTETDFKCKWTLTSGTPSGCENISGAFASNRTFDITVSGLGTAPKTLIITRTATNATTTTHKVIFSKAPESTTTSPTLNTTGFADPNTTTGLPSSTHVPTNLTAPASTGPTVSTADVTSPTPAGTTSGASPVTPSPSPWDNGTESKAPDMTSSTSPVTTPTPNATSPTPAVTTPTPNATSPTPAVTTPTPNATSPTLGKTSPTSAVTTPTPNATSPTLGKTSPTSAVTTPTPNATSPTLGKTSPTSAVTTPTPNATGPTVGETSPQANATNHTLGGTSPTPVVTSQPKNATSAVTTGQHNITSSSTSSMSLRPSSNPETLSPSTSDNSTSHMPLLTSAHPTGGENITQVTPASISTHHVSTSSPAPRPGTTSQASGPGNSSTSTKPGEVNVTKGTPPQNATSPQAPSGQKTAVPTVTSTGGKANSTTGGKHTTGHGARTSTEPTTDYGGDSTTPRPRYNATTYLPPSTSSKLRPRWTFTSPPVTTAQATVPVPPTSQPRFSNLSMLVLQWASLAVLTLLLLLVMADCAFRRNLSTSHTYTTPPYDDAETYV
T1 sequence (P03200 whole entry): as above
T2 sequence (P03200 4-863): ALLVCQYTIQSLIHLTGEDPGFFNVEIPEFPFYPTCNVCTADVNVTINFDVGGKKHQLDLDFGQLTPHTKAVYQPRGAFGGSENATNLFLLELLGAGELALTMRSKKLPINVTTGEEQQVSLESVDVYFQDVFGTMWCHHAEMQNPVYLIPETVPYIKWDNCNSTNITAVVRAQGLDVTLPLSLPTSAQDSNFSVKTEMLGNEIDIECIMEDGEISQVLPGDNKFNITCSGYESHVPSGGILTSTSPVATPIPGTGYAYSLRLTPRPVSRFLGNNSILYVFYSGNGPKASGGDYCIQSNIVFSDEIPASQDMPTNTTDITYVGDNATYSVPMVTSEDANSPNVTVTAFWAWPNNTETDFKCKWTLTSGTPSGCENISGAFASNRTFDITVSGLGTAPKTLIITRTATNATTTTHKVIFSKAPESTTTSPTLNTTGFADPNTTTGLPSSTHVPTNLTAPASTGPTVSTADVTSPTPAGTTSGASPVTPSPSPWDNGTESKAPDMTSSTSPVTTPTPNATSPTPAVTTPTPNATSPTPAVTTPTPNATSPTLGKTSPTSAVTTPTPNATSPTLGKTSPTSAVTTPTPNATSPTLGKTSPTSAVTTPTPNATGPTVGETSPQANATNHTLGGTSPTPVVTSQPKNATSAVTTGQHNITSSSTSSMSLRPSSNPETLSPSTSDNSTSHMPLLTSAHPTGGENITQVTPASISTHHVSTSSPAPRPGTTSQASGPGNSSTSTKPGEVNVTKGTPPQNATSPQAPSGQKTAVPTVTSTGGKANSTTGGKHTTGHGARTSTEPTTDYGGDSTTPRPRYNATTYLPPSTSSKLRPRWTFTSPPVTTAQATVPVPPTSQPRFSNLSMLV

| Molecule | type of gp350 epitope recognized (linear / conformational) [1] | ELISA binding to purified EBV gp350/220 [2] | neutralization of EBV in Raji cells (in words) [3] | blocking of EBV infection of Raji cells (in words) [3] | competitive binding versus m72A1 and h72A1 (in words) ([4]; biotinylated antibodies) | % inhibition of biotinylated nAbs (biotinylated m72A1) ([4]; unlabeled mAb 67.5 μg/ml) | % inhibition of biotinylated nAbs (biotinylated m72A1) ([4]; unlabeled mAb 125 μg/ml) | % inhibition of biotinylated nAbs (biotinylated m72A1) ([4]; unlabeled mAb 250 μg/ml) | % inhibition of biotinylated nAbs (biotinylated m72A1) ([4]; unlabeled mAb 500 μg/ml) |
| --- | --- | --- | --- | --- | --- | --- | --- | --- | --- |
| HB2: murine anti-EBV gp350 mAb, IgG2a κ; SEQ ID NO: 104 / 105 (antibody, V domains shown, heavy chain mAb HB2; light chain mAb HB2) VH: PELKKPGETVKISCKASGYTFTAYSMHWVKLTPGKGLKWMGWINTKTGEPTYADDFKGRFAFSLETSASTAYLQINNLKNEDTATYFCAPYGYALDYWGQGTSVTVSSAKTTPPSVYPLAPGSAAQTNSMVTLG VL: AILSASPGEKVTMTCRATSSVNYMHWYQQKPGSSPKPWIYATSNLASGVPARFSGSGSGTSYSLTISRVEAEDAATYYCQQWSSNPPTFGAGTKLELKRADAAPTV | only recognized conformational epitopes | + | failed to neutralize EBV infection | – | – | – | – | – | – |
| HB17: murine anti-EBV gp350 mAb, IgG2b κ; SEQ ID NO: 126 / 127; non-nAb (antibody, V domains shown, heavy chain mAb HB17; light chain mAb HB17, murine anti-EBV gp350 mAb, IgG2b κ; non-nAb) VH: AELVIPGASVKVSCKASGYTFTSYWIHWVKQWPGQGLEWIGEINPNNGHTNYNEKFKSKATLTVDKSSSTAYMQLSSLTSEDSAVYYCARNLFYYSRPDYWGQGTSVTVSSAKTTPPSVYPLAPGCGDTTGSSVTLG VL: SSLSASLGDRVTISCRASQDIGNYLNWYQQKPDGTIKLLIYYTSRLHSGVPSRFSGSGSGTDYSLTISNLEEEDIATYFCQQGNTLPPTFGGGTKLEIKRADAAPTV | recognized both linear and conformational epitopes | + | failed to neutralize EBV infection | Neither HB17, HB22, nor 54A1 blocked EBV infection | little to no competitive binding | – | – | – | – |
| HB3: murine anti-EBV gp350 mAb, IgG2a κ; SEQ ID NO: 106 / 107 (antibody, V domains shown, heavy chain mAb HB3; light chain mAb HB3) VH: AELVRPGASVKLSCKASGYTFASYWMQWVKQWPGQGLEWIGEINPNNGHTNYNERFKNKASLTVDKSSSTAYMQLSSLTSEDSAVYYCARNLYYYGRPDYWGQGTSVTVSSAKTTAPSVYPLAPVCGDTTGSSVTLG VL: SSLSASLGDRVTISCRASQDIGNYLNWYQQKPDGTIKLLIYYTSRLHSGVPSRFSGSGSGTDYSLTISNLEEEDIATYFCQQGNTLPPTFGGGTKLEIKRADAAPTV | only recognized conformational epitopes | + | failed to neutralize EBV infection | – | – | – | – | – | – |
| HB9: murine anti-EBV gp350 mAb, IgG2a κ; SEQ ID NO: 116 / 117 (antibody, V domains shown, heavy chain mAb HB9; light chain mAb HB9) VH: GGLVKPGGSLKLSCAASGFTFSSYTMSWVRQTPEKRLEWVATISSGGSYIYYPDSVKGRFTISRDNAKNTLYLQMSSLKSEDTAIYYCTREDFYYGSSYGFFDVWGAGTTVTVSSAKTTAPSVYPLAPVCGDTTGSSVTLG VL: LSLPVSLGDQASISCRSSQSIVHSNGNTYLEWYLQKAGQSPKLLIYKVSNRFSGVPDRFGGSGSGTDFTLKISRVEAEDLGVYYCFQGSHVPYTFGGGTKLEIKRADAAPTV | recognized both linear and conformational epitopes | + | failed to neutralize EBV infection | – | – | – | – | – | – |
| HB22: murine anti-EBV gp350 mAb, IgG1 κ; SEQ ID NO: 130 / 131; non-nAb (antibody, V domains shown, heavy chain mAb HB22; light chain mAb HB22, murine anti-EBV gp350 mAb, IgG1 κ; non-nAb) VH: PGLVAPSQSLSITCTVSGFSLTNYGIHWVRQPPGKGLEWLVVIWSDGSTIYNSALKSRLSISKDNSKSQVFLKMNSLQTDDTAMYYCARNYYGNSYPAWFAYWGQGTLVTVSAAKTTPPSVYPLAPGSAAQTNSMVTLG VL: LSLPVSLGDQASISCRSSQSIVHSNGNTYLEWYLQKPGQSPKLLIYKVSNRFSGVPDRFSGSGSGTDFTLRISRVEAEDLGVYYCFQGSHVPWTFGGGTKLEIKRADAAPTV | – | + | dose-dependent neutralization | Neither HB17, HB22, nor 54A1 blocked EBV infection | – | 9% | 16% | 3% | 10% |

— US12012446B2, “Epstein-Barr virus antibodies and uses thereof” (priority 2017, dated 2024)
